{"source": "the DeepSol protein solubility set", "data": [{"experiment": "soluble on expression in E. coli; label from the status in PepcDB or PDB records", "values": [{"sequence": "MGSDKIHHHHHHMSSLQISQGTFRLSDTKTLHLDSLTLNAGDSWAFVGANGSGKSALARALAGELPLLTGERQCRFTRITRLSFEQLQKLVSDEWQRNNTDMLSPGEDDTGRTTAEIIQDDVHHPARCAILAQQFGISALLDRRFKYLSTGETRKALLCQALMSEPELLILDEPFDGLDVTARQQLAQRLTALNQAGMTLALVLNRFDEIPDFVQFAGVLADCTLAETGTTAELLQRALVAQLAHSERLTDVQLPEPDEPSARHALPDGEPRIVLNDGVVSYNDRPILHHLSWRVNPGEHWQIVGPNGAGKSTLLSLITGDHPQGYSNDLTLFGRRRGSGETIWDIKKHIGYVSSSLHLDYRVSTTVRNVILSGYFDSIGIYQAVSDRQRKLAQQWLDILGIDKRTADAPFHSLSWGQQRLALIVRALVKHPTVLILDEPLQGLDPLNRQLVRRFVDVLIRQGETQLLFVSHHAEDAPACITHRLEFVPEGERYKYVSGRCNN", "soluble on expression in E. coli": "not soluble"}, {"sequence": "MTGFSISMDLAPKQSRSDRSTHEGTVEQRLKFFMQDVTGRALVMMESATQGQHGIAMDLVQEAFIALHKSYADKATDEWYPLFYTILNNKLQDWRRKEARRSNPFSFFKKVSLDSDEEVTDVVDETTPNPFEFLDQAVTIEEIQAAIAQLPVRQQQAFMLRAWEGFDTQTTAQIMNCSEGSVKTHYHRAIQGLRASLAHLNPSLGGSSDESR", "soluble on expression in E. coli": "not soluble"}, {"sequence": "MLKPLLAIFMISSALSIPLNRSDFLENDHVELMPLEKDGELNDKFRQEMIFSHNLDPSDSKQLSESIKEMFKKTDVNDDGFLTAGELKQQIRKNMEEHLEKSKNDSEIFFDIVDTNKDGSIVWEEFEPHFSKMHEKDHSDSELMDVHTEDPHRVDDEKRMFNRSDITRDGRLDRMEWHIFLHPEYSAQGLVEIVNDLMGVYDKNNDEVVSQDDFVNGIPGTVDELNPEFENMEKLEKERRLREFNEEIDENSDGKATFRELYDYVDPQNFRLASKEVNDIMMLTDANNDEKLSLEELLERDWLLARSSLLSARSSLHDEM", "soluble on expression in E. coli": "not soluble"}, {"sequence": "MKISIICPLYNAENYIMSLHNKILEQEKPEGTEVEVSYVLTRCKDKTEEMLKNMNLQYTLIEPKDFSHSKTREMMAFKSTGDIIVFISQDVMMKNNFWLKNLVQPIIDGECEASFSRQLCTNNTIEKYIREKNYPEESRVVSKKDINKYGLLTFFYSDASSAVKTSVYKELNGYDNKRLLINEDMYFAEKLIQAGYRIKYCSDSEVYHSHVFTLKSLYERYFDTGVFFRQNSQFLNYKGNKSGKDLAIHVLKRSLEDKNFKVTLNILPNFGARFIGSFLGKKYESLPRSFVMASSMSKKVYSQILEHHHHHH", "soluble on expression in E. coli": "soluble"}, {"sequence": "MGHHHHHHSHMLKDFLKEQGFEVRENHEVDAVIIGQDKEIEFKKIKNATSAVFLKGAKIIPVNLSKIVKDSDGLYFPGSGSYAYMFKHATNYEGEIPNLGKPSKEFINLALEGLPREKVFLISDDIYTDLMGAKELGIGTIFMTTGKYKQEELKKANFKPDYVFHSLKELMREIKKWLS", "soluble on expression in E. coli": "not soluble"}, {"sequence": "MGRLADTLDALSVRALSPDHRIQGQLHHRTKVDISFTSEDSYYEYKSEQAVAAQLSAVLNALIVGRNEGFCAAVREVTDLRLDDRPHWDARRRRFREERDGAPLEGQSAGGWLTVASVGLRDANATVKPGAFDELDASGFLIEVHSAIADLWKDQAMAMSYLRRTHFG", "soluble on expression in E. coli": "not soluble"}, {"sequence": "MSSANIPATQSALIFEKYGGPLEVRQVSVPQPQENELLVKIEYSGICHSDLHTWEGDFEYASICPLIGGHEGAGTVVTIGSKVKGWNIGDRAGIKLINANCLNCEYCKTGHEPLCDHIQNYGIDRHGTFQEYLTIRDIDAIKVSNDTNLAAAAPVLCGGVTAYKSLKATNVKPGQIVVLTGAGGGLGSFGIQYAKAMGMRVVAVDHISKEDHCRNLGAEWFVDAFDTPDIVAHIRKLTNGGAHGVVSFAAAKKPMEYALEYVRKRGTVVFVGLPKDGTIPLDTLSLICNEITVKGSIVGSRMDVDEAIDFITRGIVHVPIELVKLEDVPSVYQRMKDGKVTSRVVVDFSMR", "soluble on expression in E. coli": "not soluble"}, {"sequence": "MALHVDYTAERAFARIIGGLRSARLDAGLSQNALAAGMPVRGRAISEWETRAVEPTLGHLIQWARELGRRLVIVGRDGELRVGPVRQRPGETFEIFERRRLAVPLRNRRLALGMAQGELGALVGVSRDSIQRWELVRVPPRPIAHVVWAQKLGCSLDILVVPDGARRVRRTGFAPAGLAGSTLERPGLRVQRLGL", "soluble on expression in E. coli": "not soluble"}, {"sequence": "DLREVLDFMLKDEVSKLRKLLVKIKTKKIAEVEYENVVKALKLFKDNYEINEYLMDENTKEFLIKRNILFLNPVEEILKPQSYLVWNAIKRVLQNINDF", "soluble on expression in E. coli": "soluble"}, {"sequence": "MSLVDTAKVLILDDQAVSRSILSKIVRNLGRGIKTCEFSSPTEALLWAQDNTADLLLVDYEMPGMNGLCFINEITRLPQYQTVPTIMITIKQDVEIRYAALDAGVTDFLTKPVDMHECMARCKNLITLRQQRLTLEDEGHHHHHH", "soluble on expression in E. coli": "soluble"}, {"sequence": "MGSDKIHHHHHHMEMLFLLKNLYRDPLALSRFSQFRCLHISKGEIIQNLNETHEFQVCFVLKGSLCLFRDHIESMPLMAMQNEFFFISSLHQCKIKAMDEVQLVIHACNIVAPYLHSRTIEYLQDISIEEVKPVEVLPIYPLMRSYLDLLVDYMKNGTEIPDLHRAKEYELFSLFKICYKKNEIASIFRDALSNDLQFFVSVMTHYKACRTAKELAVLCGYNDTVFTQLFKKNFHGDTPYQWLQKQTSYEIEFKLKKSTLPIKQIMLDYHFKTFSHFTTYCKRNIGATPNEIRKKGEESRDTPSLETYSVSAND", "soluble on expression in E. coli": "not soluble"}, {"sequence": "MATFPHFGTAAIHVGQEPEQWDMNQVVPPISLSSTYKQDNPGEPKGHDYSRAGNPTRDVLQKNLAALEDAKHCQVFSSGLAATSAIINLLKYGDHIVCSDDVYGGTQRYIRRVAVPNHGLEVDSVDLTDVQNLEKAIKPNTKMVWFESPSNPLLKVVDIAAVVQTAKKANPEIVVVVDNTFMSPYFQRPISLGADVVVHSITKYINGHSDVVMGAVITDNDEFQQHLFFMQLAVGAVPSPFDCFLVNRGLKTLHIRMRAHYENALAVAKYLEANDRIESVLYPALPSHPQHEVHEKQTKGMSGMISFYLKGELQESRAFLSALKVFTLAESLGGYESLAELPSIMTHASVPAETRIVLGITDNLIRISVGIEDLDDLVADLDQALKIAIPKV", "soluble on expression in E. coli": "not soluble"}, {"sequence": "GMSARDVFHEVVKTALKKDGWQITDDPLTISVGGVNLSIDLAAQKLIAAERQGQKIAVEVKSFLKQSSAISEFHTALGQFINYRGALRKVEPDRVLYLAVPLTTYKTFFQLDFPKEIIIENQVKMLVYDVEQEVIFQWIN", "soluble on expression in E. coli": "soluble"}, {"sequence": "MAHHHHHHMKCEVDRPVTQNTERNGSEGNVAKNYMTHLYQFQNNEMKKIDASYFENKYLGLFFGASWCRYCVTFIQNINFFKKNFPFIEIIYIPFDKTYNDYVAFLKATDFYSLPFDNYLYICKKFNIKNLPSFMIIAPNNNVLVKDAVQLIKTDTYVNNFKSLVKNYTVHPSHFKIGNRFFDLFCA", "soluble on expression in E. coli": "soluble"}, {"sequence": "MKYIIIGLGNYGHVLAEELSALGHEIIGADISESRVDSIKDKVATAFVIDATDEQSLSVLPLNSVDIVVVAIGENFGASVRVVALLKQKKVPRIFARAIDAVHKAVLEAFSLEKILTPEEDAARSLVQLLDFGATMEAFRIDQDYYVVKFTVPKKFVGYFVNELNMDEEFHLKLIALKRANKVTNCLGISLMERHVKNELPGDEKVEEGDELVCYGKYRDFQSFWKAILEHHHHHH", "soluble on expression in E. coli": "soluble"}, {"sequence": "MMNASTKFSDNYDVKEELGKGAFSVVRRCVHKTTGLEFAAKIINTKKLSARDFQKLEREARICRKLQHPNIVRLHDSIQEESFHYLVFDLVTGGELFEDIVAREFYSEADASHCIQQILESIAYCHSNGIVHRDLKPENLLLASKAKGAAVKLADFGLAIEVNDSEAWHGFAGTPGYLSPEVLKKDPYSKPVDIWACGVILYILLVGYPPFWDEDQHRLYAQIKAGAYDYPSPEWDTVTPEAKSLIDSMLTVNPKKRITADQALKVPWICNRERVASAIHRQDTVDCLKKFNARRKLKAAISAVKMVTRMSGVLRTSDSTGSVASNGSTTHDASQVAGTSSQPTSPAAEVYPNVLLFNPQKFPRNCVHPFTTHPYYSPKESSKKKLFFTLLFEVCPHTSRSHILLRDNTKNIYHPYHCFTNKMSNYERAAPSSHGSSTTKKIANAIADLVIRRSSPSIRRKTEADVHNSNRNRKVSAPANLQHALVPVIDVVVATGALASSSVDNLSASTSSDLGRNLLNKKEQGPPSTIKESSESSQTIDDNDSEKGGGQLKHENTVVRADGATGIVSSSNSSTASKSSSTNLSAQKQDIVRVTQTLLDAISCKDFETYTRLCDTSMTCFEPEALGNLIEGIEFHRFYFDGNRKNQVHTTMLNPNVHIIGEDAACVAYVKLTQFLDRNGEAHTRQSQESRVWSKKQGRWVCVHVHRSTQPSTNTTVSEF", "soluble on expression in E. coli": "not soluble"}, {"sequence": "MSLRDTQTQLRNEMIYSVFVRNYSEAGNFAGVTADLQRIKDLGTDILWLLPINPIGEVNRKGTLGSPYAIKDYRGINPEYGTLADFKALTDRAHELGMKVMLDIVYNHTSPDSVLATEHPEWFYHDADGQLTNKVGDWSDVKDLDYGHHELWQYQIDTLLYWSQFVDGYRCDVAPLVPLDFWLEARKQVNAKYPETLWLAESAGSGFIEELRSQGYTGLSDSELYQAFDMTYDYDVFGDFKDYWQGRSTVERYVDLLQRQDATFPGNYVKMRFLENHDNARMMSLMHSKAEAVNNLTWIFMQRGIPLIYNGQEFLAEHQPSLFDRDTMVADRHGDVTPLIQKLVTIKQLPLLRAADYQLAVVEEGIVKITYRAAGEALTAWIPLKGQVTAVATKLAAGSYQNLLTDGPTEVVDGKLTVDGQPVLIKYVTNTAVTKVADQSNEGHHHHHH", "soluble on expression in E. coli": "soluble"}, {"sequence": "MKVALGGTFEPLHEGHKKLIDVAIKLGGRDITIGVTSDRMARARIRSVLPFAIRAENVKRYVMRKYGFEPEIVKITNPYGKTLDVDFEYLVVSPETYEMALKINQKREELGKRKITIVKVDWMMAEDGKPISSTRIKRGEIDRYGGII", "soluble on expression in E. coli": "soluble"}, {"sequence": "GFASHQYVNHVEKQRPIVTLAKHPKKVLFFYRDDCPDCQAIFHRIYWHNVISHNVVFINMNQTQNRHYIQQYQLTSVPTLIHGKQRYTGTNQQRIKQIVGD", "soluble on expression in E. coli": "not soluble"}, {"sequence": "MSITLITAAPGAGKTIFAVWNIIKPAVEADRVVYTAGIPELKLPAISLSYSQVKRWADRELVEVENPSGIPIPDDEKPSRLQNITEGALIVIDEVQYLWPASGSREPGEDIKYLTKHRHHGLEFVLITQAPQLIHKNVLAVVDKHIHMLSDWHGRKRYEWPEYCATVRATSSKLKAVSQRYELPKEAYGLYRSASMHI", "soluble on expression in E. coli": "not soluble"}, {"sequence": "MDQLSAMRAFVRVVETGSFSATGKEMNTSQTTISKKVAALENQIGVKLLTRSSRDHSLTPAGSDYYQTCVNILSELDEVEAKVRSKATLPQGSIRITAPVAFGRFLLAPIVAEFFQHYPDIKIDLLLNDKHVNLISEGIDVAIRAKNLEDSSLVARHLLDNPMYLFASPDYLEQYGEPKHPNELSTHNCLIYSGLQDAHIWNFNHGEKEYSVPVKGNFQSDNGDVLLDVALTGVGIVSLPIWMAKAHLTSGHLRQIMTKYSGQQLPINAIYPQRRYTPLKVRCFIDFLKQKLSE", "soluble on expression in E. coli": "not soluble"}, {"sequence": "MSLKAPVDFEQEVAPLLSQRCVSCHSPNIKKGELSLAGPEDLLANGYVVPGDPAGSYLLEVVSPAGDDPAAMPKLGDALAEPEVALLRRWIEQGAVWPDGFVIREASKADRSWWSLQPLADIHPPEVAAAPAAWRQNPIDRFVWAKLSEANLKPNSPADRRTLIRRATFDLTGLPPTAEEIDTFVASDSPDAYPQLIDRMLASPRYGERWGRHWLDVIRFGESRGFERNQIITNLWPFRDYVIRSINEDKPFDQFIREHLAGDVIAPNTPQVEVGSAFLVAGPYDDVGNQDPAQAAQIRANTIDEMIRASSEAFLGLTIGCARCHDHKFDVISQRDYYAMYATFAGVKHGERAVATSEQREGHHHHHH", "soluble on expression in E. coli": "not soluble"}]}]}
